What was measured:
[1] = molecular target: T1, human FcRn (human, UniProt P55899 24-297; P61769 21-119, limits assumed); experiment: FcRn binding, method not stated
T1 construct: Beta-2-microglobulin is not mentioned

[2] = molecular target: cyno FcRn (cynomolgus monkey, UniProt Q8SPV9 24-297; Q8SPW0 21-119, limits assumed); experiment: FcRn binding, method not stated
[3] = molecular target: T2, Avi/his-CalR-Ins5 (CALRW28.004) (human, UniProt P27797 18-417, limits assumed); experiment: SPR, forced degradation: Physiological
T2 construct: also called human CALRins5
T2 sequence (looked up): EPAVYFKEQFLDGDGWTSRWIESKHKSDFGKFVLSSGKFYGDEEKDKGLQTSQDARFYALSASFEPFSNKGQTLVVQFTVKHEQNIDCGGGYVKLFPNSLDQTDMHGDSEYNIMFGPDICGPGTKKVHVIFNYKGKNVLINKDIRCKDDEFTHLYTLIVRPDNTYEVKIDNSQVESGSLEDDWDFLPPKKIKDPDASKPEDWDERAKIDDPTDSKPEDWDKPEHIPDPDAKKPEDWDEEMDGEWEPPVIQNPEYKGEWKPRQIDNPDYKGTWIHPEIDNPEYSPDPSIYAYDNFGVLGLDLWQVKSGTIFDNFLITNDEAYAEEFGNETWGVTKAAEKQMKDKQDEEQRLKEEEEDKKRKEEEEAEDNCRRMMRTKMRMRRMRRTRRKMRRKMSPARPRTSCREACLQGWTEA

[4] = molecular target: T3, Flag/6xhis-CALRdel52 (CALRW12.007) (human, UniProt P27797 18-417); experiment: SPR, forced degradation: Physiological
T3 construct: also called human CALRdel52
T3 sequence (looked up): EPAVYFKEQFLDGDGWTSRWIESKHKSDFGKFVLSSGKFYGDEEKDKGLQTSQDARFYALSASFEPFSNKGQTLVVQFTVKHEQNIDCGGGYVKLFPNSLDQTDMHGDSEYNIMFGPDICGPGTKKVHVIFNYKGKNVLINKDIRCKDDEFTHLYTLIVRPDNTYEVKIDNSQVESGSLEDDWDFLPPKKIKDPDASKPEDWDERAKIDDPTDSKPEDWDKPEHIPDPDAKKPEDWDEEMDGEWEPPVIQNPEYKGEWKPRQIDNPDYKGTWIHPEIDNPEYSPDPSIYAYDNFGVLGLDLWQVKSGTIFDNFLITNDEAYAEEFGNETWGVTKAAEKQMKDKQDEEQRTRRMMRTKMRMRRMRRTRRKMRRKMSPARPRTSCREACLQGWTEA

[5] = molecular target: T4, CD3EG-HSA-6xHis (CD3W220.002) (human, UniProt P07766 22-118; P09693 23-103); experiment: SPR, forced degradation: Physiological
T4 construct: also called human CD3; not shown: human serum albumin (HSA); 6xHis tag

[6] = molecular target: T5, CD3 on primary human pan T cells (human, UniProt P07766 23-207); experiment: flow cytometry, CD3+ pan T cells of 6 healthy donors; average over pan T cells of 6 healthy donors; 1 hour 37° C. incubation
T5 construct: whole, on cells; also called CD3e; CD3ε
Protocol: Flow cytometry was used to evaluate the CD3 arm binding of C3CRB73 to CD3+ pan T cells from 6 different healthy human donors. C3CRB73 and NullxCD3 spFv were tested after 1 hour 37° C. incubation with pan T cells.

[7] = molecular target: T3, Flag/6xhis-CALRdel52 (CALRW12.007); experiment: SPR, forced degradation: Thermal
[8] = molecular target: CALRmut on CD34+ cells isolated from CALRmut MPN patients; experiment: cell-based or functional assay
[9] = molecular target: T2, Avi/his-CalR-Ins5 (CALRW28.004); experiment: SPR, forced degradation: pH 5.0
[10] = molecular target: T3, Flag/6xhis-CALRdel52 (CALRW12.007); experiment: SPR, forced degradation: pH 5.0
[11] = molecular target: T4, CD3EG-HSA-6xHis (CD3W220.002); experiment: SPR, forced degradation: pH 5.0
[12] = molecular target: T5, CD3 on primary human pan T cells; experiment: flow cytometry on pan CD3 T cells, 1 h at 37 C, AF647 secondary antibody, Geometric Mean
[13] = molecular target: T6, CALRins5 (mutant calreticulin, 5 base pair insertion, Type 2) expressed with MPL on engineered cancer cells (UniProt P27797 18-417); experiment: cell-based or functional assay
T6 sequence (looked up): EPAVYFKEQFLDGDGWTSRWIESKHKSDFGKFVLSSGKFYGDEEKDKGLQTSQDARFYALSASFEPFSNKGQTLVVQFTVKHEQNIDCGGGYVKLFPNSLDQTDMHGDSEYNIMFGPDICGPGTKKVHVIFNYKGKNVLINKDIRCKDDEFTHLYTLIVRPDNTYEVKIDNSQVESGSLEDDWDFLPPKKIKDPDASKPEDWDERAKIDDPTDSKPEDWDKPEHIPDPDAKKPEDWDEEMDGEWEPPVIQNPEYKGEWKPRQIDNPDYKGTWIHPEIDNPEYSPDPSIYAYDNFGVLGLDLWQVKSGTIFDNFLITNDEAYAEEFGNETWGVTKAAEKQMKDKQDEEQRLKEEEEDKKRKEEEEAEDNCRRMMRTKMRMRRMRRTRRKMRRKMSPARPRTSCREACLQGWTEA

[14] = molecular target: T7, CALRdel52 (mutant calreticulin, 52 base pair deletion, Type 1) expressed with MPL on engineered cancer cells (UniProt P27797 18-417); experiment: cell-based or functional assay
T7 sequence (looked up): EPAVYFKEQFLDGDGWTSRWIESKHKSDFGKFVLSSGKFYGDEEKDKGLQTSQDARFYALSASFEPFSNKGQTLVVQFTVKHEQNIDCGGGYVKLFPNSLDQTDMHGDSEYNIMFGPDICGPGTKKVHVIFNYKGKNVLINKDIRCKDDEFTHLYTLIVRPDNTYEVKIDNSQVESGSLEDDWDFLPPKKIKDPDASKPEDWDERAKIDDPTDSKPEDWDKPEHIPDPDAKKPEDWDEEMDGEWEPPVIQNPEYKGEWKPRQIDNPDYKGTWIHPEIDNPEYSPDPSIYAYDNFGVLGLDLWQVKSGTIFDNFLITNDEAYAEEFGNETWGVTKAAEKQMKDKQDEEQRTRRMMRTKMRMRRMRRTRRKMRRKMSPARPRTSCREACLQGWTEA

[15] = molecular target: T6, CALRins5 (mutant calreticulin, 5 base …); experiment: cell-based or functional assay; remark: listed apart in the source
[16] = molecular target: T7, CALRdel52 (mutant calreticulin, 52 base …); experiment: cell-based or functional assay; remark: listed apart in the source

T4 sequence (P07766 other isoform, or with tags, fused parts or gaps): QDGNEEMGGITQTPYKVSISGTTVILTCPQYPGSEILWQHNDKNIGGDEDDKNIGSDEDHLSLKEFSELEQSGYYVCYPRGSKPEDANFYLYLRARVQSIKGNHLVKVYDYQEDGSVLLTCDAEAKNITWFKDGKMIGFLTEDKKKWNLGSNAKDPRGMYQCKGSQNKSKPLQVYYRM
T5 sequence (P07766 23-207): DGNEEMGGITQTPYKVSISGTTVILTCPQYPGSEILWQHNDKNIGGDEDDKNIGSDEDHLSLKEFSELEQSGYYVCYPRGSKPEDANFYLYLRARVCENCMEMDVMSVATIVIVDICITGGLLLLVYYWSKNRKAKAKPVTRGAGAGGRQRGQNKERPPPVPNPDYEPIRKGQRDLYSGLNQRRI
cyno FcRn, sequence (Q8SPV9 24-297 limits assumed, chain 1 of 2): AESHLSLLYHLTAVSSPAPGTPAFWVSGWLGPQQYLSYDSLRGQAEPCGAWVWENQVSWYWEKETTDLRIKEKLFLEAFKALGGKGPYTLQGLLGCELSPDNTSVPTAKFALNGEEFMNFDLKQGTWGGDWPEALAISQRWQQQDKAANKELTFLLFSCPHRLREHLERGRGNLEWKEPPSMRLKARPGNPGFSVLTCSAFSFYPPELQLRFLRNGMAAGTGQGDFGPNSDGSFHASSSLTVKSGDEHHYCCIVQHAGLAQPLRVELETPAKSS
cyno FcRn, sequence (Q8SPW0 21-119 limits assumed, chain 2 of 2): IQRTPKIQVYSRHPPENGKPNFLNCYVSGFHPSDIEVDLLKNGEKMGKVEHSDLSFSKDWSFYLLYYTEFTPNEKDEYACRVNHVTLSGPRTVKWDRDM

Kd [1]: 1900 nM | Kd [2]: 900 nM | % Active [3]: 99% | Kd [3]: 0.0622 nM | % Active [4]: 98% | Kd [4]: 0.0171 nM | % Active [5]: 96% | Kd [5]: 0.301 nM | EC50 [6]: 23.8 nM | % Active [7]: 98% | Kd [7]: 0.0664 nM | % Active [9]: 98% | Kd [9]: 0.0342 nM | % Active [10]: 103% | Kd [10]: 0.114 nM | % Active [11]: 100% | Kd [11]: 0.231 nM | EC50 (read off the curve) [12]: ~7 nM | % CD25+ CD8 T cells EC50 (nM), CALRmut patient blood, ELF-153 MPL CALRins5 [15]: 1.68 nM | % CD25+ CD8 T cells EC50 (nM), healthy donor blood, ELF-153 MPL CALRins5 [15]: 0.53 nM | % CD69+ CD8 T cells EC50 (nM), CALRmut patient blood, ELF-153 MPL CALRins5 [15]: 1.08 nM | % CD69+ CD8 T cells EC50 (nM), healthy donor blood, ELF-153 MPL CALRins5 [15]: 0.41 nM | % CD25+ CD8 T cells EC50 (nM), CALRmut patient blood, ELF-153 MPL CALRdel52 [16]: 2.46 nM | % CD25+ CD8 T cells EC50 (nM), healthy donor blood, ELF-153 MPL CALRdel52 [16]: 1 nM | % CD69+ CD8 T cells EC50 (nM), CALRmut patient blood, ELF-153 MPL CALRdel52 [16]: 3.06 nM | % CD69+ CD8 T cells EC50 (nM), healthy donor blood, ELF-153 MPL CALRdel52 [16]: 0.88 nM
B1: C3CRB73 CALRmut x CD3 bispecific antibody (bispecific antibody, human IgG1, kappa, L234A L235A)
heavy: EVQLLESGGGLVQPGGSLRLSCAVSGIDLSNNAISWVRQAPGKGLEYVGVIGNTGDTYYADSAKGRFTISRDSSKTTLYLQMNSLRAEDTAVYFCVRGPPSYSSSVKNIWGQGTLVTVSSASTKGPSVFPLAPSSKSTSGGTAALGCLVKDYFPEPVTVSWNSGALTSGVHTFPAVLQSSGLYSLSSVVTVPSSSLGTQTYICNVNHKPSNTKVDKKVEPKSCDKTHTCPPCPAPEAAGGPSVFLFPPKPKDTLMISRTPEVTCVVVSVSHEDPEVKFNWYVDGVEVHNAKTKPREEQYNSTYRVVSVLTVLHQDWLNGKEYKCKVSNKALPAPIEKTISKAKGQPREPQVYTLPPSREEMTKNQVSLSCAVKGFYPSDIAVEWESNGQPENNYKTTPPVLDSDGSFFLVSKLTVDKSRWQQGNVFSCSVMHEALHNRFTQKSLSLSPGK
light: DIQMTQSPSSVSASVGDRVTITCQSSQSVYNNNWLSWLQQKPGKAPKRLIYDASKLESGVPSRFSGSGSGTDFTLTISSVQPEDAATYYCAGGFTGNVYTFGGGTKVEIKRTVAAPSVFIFPPSDEQLKSGTASVVCLLNNFYPREAKVQWKVDNALQSGNSQESVTEQDSKDSTYSLSSTLTLSKADYEKHKVYACEVTHQGLSSPVTKSFNRGEC
scFv: DIQMTQSPSSLSASVGDRVTITCRARQSIGTAIHWYQQKPGCAPKLLIKYASESISGVPSRFSGSGSGTDFTLTISSLQPEDFATYYCQQSGSWPYTFGQGTKLEIKGGGSGGSGGCPPCGGSGGEVQLVESGGGLVKPGGSLRLSCAASGFTFSRYNMNWVRQAPGKGLEWVSSISTSSNYIYYADSVKGRFTFSRDNAKNSLDLQMSGLRAEDTAIYYCTRGWGPFDYWGCGTLVTVSSEPKSSDKTHTCPPCPAPEAAGGPSVFLFPPKPKDTLMISRTPEVTCVVVSVSHEDPEVKFNWYVDGVEVHNAKTKPREEQYNSTYRVVSVLTVLHQDWLNGKEYKCKVSNKALPAPIEKTISKAKGQPREPQVYTLPPSREEMTKNQVSLWCLVKGFYPSDIAVEWESNGQPENNYKTTPPVLDSDGSFFLYSKLTVDKSRWQQGNVFSCSVMHEALHNHYTQKSLSLSPGK
notes: IgG1-AAS; also called JNJ-88549968; CALRB421 Fab x CD3 spFv
cytotoxicity EC50, autologous assay, patient CALRmut CD34+ cells [8]: 0.94 nM | cytotoxicity EC90, autologous assay, patient CALRmut CD34+ cells [8]: 7.58 nM | maximal cytotoxicity, autologous assay, CD34+ cells of one donor without detected binding [8]: 68% | maximum cytotoxicity, autologous assay, patient CALRmut CD34+ cells [8]: 69% | T cell-mediated cytotoxicity EC50 (nM), ELF-153 MPL CALRins5 [13]: 0.094 nM | T cell-mediated cytotoxicity EC50 (nM), OCI-M2 MPL CALRins5 [13]: 1.69 nM | T cell-mediated cytotoxicity EC50 (nM), ELF-153 MPL CALRdel52 [14]: 0.034 nM | T cell-mediated cytotoxicity EC50 (nM), OCI-M2 MPL CALRdel52 [14]: 0.61 nM

— patent US20260125457A1 (Janssen / Centocor, published 2026)
